Laboratory results from article PMC3501490 (PLoS ONE, 2012).

Biological target: PI3K p85 SH2 domains
Experiment: SPR (BIAcore 3000), PI3K p85 SH2 domains
Type: binding
Conditions: HBS pH 7.4, 37°C, n = 3
Description: Experiments were conducted on a BIAcore™ 3000 in HBS buffer (0.01 M HEPES, pH 7.4, containing 0.15 M NaCl, 3 mM EDTA, and 0.005% v/v P-20, GE Life Sciences, Amersham, UK). Streptavidin was coupled to a research grade CM5 chip (GE Life Sciences, Amersham, UK) as previously described, [13]. Protein-peptide interactions were carried out a rate of 10 µl/min at a constant temperature of 37°C to more accurately reflect physiological conditions. Biotinylated peptides were bound to the streptavidin-coated CM5 chips at 37°C to between 25–50 RU [14]. Purified monomeric SH2 domains were passed over the immobilised peptides at a range of concentrations. Anti-phosphotyrosine monoclonal antibody (Sigma, Poole, U.K.) was passed over the chip to saturation at the end of each experiment to verify peptide coverage on the chip. Binding affinities for the single ITIM/ITSM peptides were determined by plotting equilibrium binding measurements (RU) against SH2 domain protein concentration (Origin 8, OriginLab, MA, USA). KD was defined as the concentration of SH2 protein that gave half maximal binding to the peptide. For the 60-mer peptides, SH2 domains were passed over the chip surface at 50 µl/min. KD was determined as Koff/Kon, which were determined using both GraphPad Prism 5.0 (GraphPad, La Jolla, CA, USA) and BIAevaluation Software (GE Life Sciences, Amersham,UK). […]

B1: G6B-b: inhibitory platelet receptor; affinities measured with its dual phosphopeptide (protein, UniProt O95866 18-241, looked up)
Megakaryocyte and platelet …: NPGASLDGRPGDRVNLSCGGVSHPIRWVWAPSFPACKGLSKGRRPILWASSSGTPTVPPLQPFVGRLRSLDSGIRRLELLLSAGDSGTFFCKGRHEDESRTVLHVLGDRTYCKAPGPTHGSVYPQLLIPLLGAGLVLGLGALGLVWWLHRRLPPQPIRPLPRFAPLVKTEPQRPVKEEEPKIPGDLDQEPSLLYADLDHLALSRPRRLSTADPADASTIYAVVV
Kd: ~1 µM
